Measurements: the Immune Epitope Database (IEDB)

How the values were obtained:
[1] = biological target: HLA-B*18:01; assay: IEDB peptide-MHC binding, purified MHC/direct/fluorescence; filed as Kd, often an IC50 or EC50 that approximates it; ≥ and ≤ were set here for values at or beyond the usual limits of such assays; settings: source organism: West Nile virus strain PTRoxo
[2] = biological target: HLA-A*80:01; assay: as above
[3] = biological target: HLA-B*15:01; assay: as above; settings: source organism: West Nile virus strain PTRoxo
[4] = biological target: HLA-A*25:01; assay: as above; settings: source organism: West Nile virus strain PTRoxo
[5] = biological target: HLA-B*51:01; assay: as above; settings: source organism: West Nile virus
[6] = biological target: HLA-B*57:01; assay: as above; settings: source organism: West Nile virus strain PTRoxo
[7] = biological target: HLA-B*44:02; assay: as above; settings: source organism: West Nile virus strain PTRoxo
[8] = biological target: HLA-B*58:01; assay: as above; settings: source organism: West Nile virus strain PTRoxo
[9] = biological target: HLA-A*29:02; assay: as above; settings: source organism: West Nile virus strain PTRoxo
[10] = biological target: HLA-A*30:01; assay: as above; settings: source organism: West Nile virus strain PTRoxo
[11] = biological target: HLA-A*26:01; assay: IEDB peptide-MHC binding, purified MHC/competitive/fluorescence; filed as Kd, often an IC50 or EC50 that approximates it; ≥ and ≤ were set here for values at or beyond the usual limits of such assays
[12] = biological target: HLA-C*15:02; assay: IEDB peptide-MHC binding, purified MHC/direct/fluorescence; filed as Kd, often an IC50 or EC50 that approximates it; ≥ and ≤ were set here for values at or beyond the usual limits of such assays; settings: source organism: Methylibium petroleiphilum PM1
[13] = biological target: HLA-C*07:02; assay: as above; settings: source organism: Methylibium petroleiphilum PM1
[14] = biological target: HLA-B*15:42; assay: IEDB peptide-MHC binding, purified MHC/competitive/fluorescence; filed as Kd, often an IC50 or EC50 that approximates it; ≥ and ≤ were set here for values at or beyond the usual limits of such assays
[15] = biological target: HLA-B*15:02; assay: as above; settings: source organism: Methylibium petroleiphilum PM1
[16] = biological target: HLA-B*83:01; assay: as above
[17] = biological target: HLA-C*06:02; assay: as above; settings: source organism: Methylibium petroleiphilum PM1
[18] = biological target: HLA-C*14:02; assay: as above; settings: source organism: Methylibium petroleiphilum PM1
[19] = biological target: HLA-B*45:06; assay: as above
[20] = biological target: HLA-B*27:20; assay: as above
[21] = biological target: HLA-B*40:13; assay: as above; settings: source organism: Methylibium petroleiphilum PM1
[22] = biological target: HLA-A*26:02; assay: as above; settings: source organism: Human immunodeficiency virus 1
[23] = biological target: HLA-B*08:01; assay: as above; settings: source organism: Human immunodeficiency virus 1
[24] = biological target: HLA-B*08:03; assay: as above; settings: source organism: Human immunodeficiency virus 1
[25] = biological target: HLA-B*18:01; assay: as above; settings: source organism: Human immunodeficiency virus 1
[26] = biological target: HLA-B*15:09; assay: as above; settings: source organism: Human immunodeficiency virus 1
[27] = biological target: HLA-B*15:01; assay: as above; settings: source organism: Human immunodeficiency virus 1
[28] = biological target: HLA-A*11:01; assay: as above; settings: source organism: Human immunodeficiency virus 1
[29] = biological target: HLA-A*26:03; assay: as above; settings: source organism: Human immunodeficiency virus 1
[30] = biological target: HLA-A*01:01; assay: as above; settings: source organism: Human immunodeficiency virus 1
[31] = biological target: HLA-B*40:02; assay: IEDB peptide-MHC binding, cellular MHC/competitive/fluorescence; ≥ and ≤ were set here for values at or beyond the usual limits of such assays; settings: source organism: Homo sapiens
[32] = biological target: HLA-A*24:02; assay: IEDB peptide-MHC binding, purified MHC/competitive/fluorescence; filed as Kd, often an IC50 or EC50 that approximates it; ≥ and ≤ were set here for values at or beyond the usual limits of such assays; settings: source organism: Hepacivirus hominis
[33] = biological target: HLA-C*04:01; assay: IEDB peptide-MHC binding, purified MHC/direct/fluorescence; filed as Kd, often an IC50 or EC50 that approximates it; ≥ and ≤ were set here for values at or beyond the usual limits of such assays; settings: source organism: Japanese encephalitis virus
[34] = biological target: HLA-B*73:01; assay: as above; settings: source organism: Burkholderia mallei ATCC 23344
[35] = biological target: HLA-B*27:05; assay: as above; settings: source organism: Burkholderia mallei
[36] = biological target: HLA-B*48:01; assay: as above; settings: source organism: Burkholderia mallei
[37] = biological target: HLA-C*06:02; assay: as above; settings: source organism: human gammaherpesvirus 4
[38] = source organism: West Nile virus
[39] = source organism: Methylibium petroleiphilum PM1
[40] = source organism: Hepacivirus hominis
[41] = source organism: human gammaherpesvirus 4

## EIPDVLNSL
[1]
  Kd: ≥ 20 µM
[2]; source organism: West Nile virus strain PTRoxo
  Kd: ≥ 20 µM
[3]
  Kd: ≥ 20 µM
[4]
  Kd: 0.023 µM
[5]
  Kd: ≥ 20 µM
[6]
  Kd: ≥ 20 µM
[7]
  Kd: ≥ 20 µM
[8]
  Kd: ≥ 20 µM
[9]
  Kd: ≥ 20 µM
[10]
  Kd: ≥ 20 µM
[11]; [38]
  Kd: 0.277 µM

## FQMGGIGPM
[12]
  Kd: 2.18 µM
[13]
  Kd: 0.448 µM
[14]; [39]
  Kd: ≥ 5 µM
[15]
  Kd: 0.0144 µM
[16]; [39]
  Kd: ≥ 5 µM
[17]
  Kd: 0.513 µM
[18]
  Kd: 0.0132 µM
[19]; [39]
  Kd: ≥ 5 µM
[20]; [39]
  Kd: 0.0003 µM
[21]
  Kd: 0.0088 µM

## GTEEIKSLY
[22]
  Kd: 1.21 µM
[23]
  Kd: ≥ 20 µM
[24]
  Kd: ≥ 20 µM
[25]
  Kd: 0.0777 µM
[26]
  Kd: ≥ 20 µM
[27]
  Kd: ≥ 20 µM
[28]
  Kd: ≥ 20 µM
[29]
  Kd: ≥ 20 µM
[30]
  Kd: 0.0138 µM
[11]; source organism: Human immunodeficiency virus 1
  Kd: 1.57 µM

## KEQSPEPHL
[31]
  IC50: 1.9 µM

## LLPRRGPRL
[14]; [40]
  Kd: ≥ 5 µM
[16]; [40]
  Kd: ≥ 5 µM
[19]; [40]
  Kd: ≥ 5 µM
[32]
  Kd: 0.09 µM

## QTDNQLAVF
[2]; [38]
  Kd: ≥ 20 µM
[33]
  Kd: ≥ 20 µM

## RRHGMAWRQ
[34]
  Kd: 12 µM
[35]
  Kd: 0.213 µM
[36]
  Kd: ≥ 20 µM

## RRRKGWIPL
[37]
  Kd: ≥ 20 µM
[14]; [41]
  Kd: ≥ 5 µM
[16]; [41]
  Kd: ≥ 5 µM
[19]; [41]
  Kd: ≥ 5 µM
[20]; [41]
  Kd: 0.0002 µM
